Results reported in US11789012B2, “Cell death biomarker” (UCL Business PLC, priority 2016, dated 2023).

Legend:
H2869 = experiment: rTRAIL response, viability assay, H2869; assay type: cell-based, Human; details: BAP1 Wild-type
Description: (§1) Manual “single dose” combination screening was undertaken using 96 well formats. Cells were plated on day 1 in previously optimized seeding densities in 180 μl if media. On day 2 20 μl of a 10× concentration of […] was added. Cells were then allowed to grow for 72 hrs or 6 days and fixed at the end of the assay. Drug wells were compared to DMSO treated control wells.
(§2) Single agent high throughput 5 point viability screening was undertaken in 384 well formats using robotic liquid handling with fixing with 4% paraformaldehyde and staining for viability with Syto60 nucleic acid dye (Invitrogen) (see below). Single agent dose response curves were derived for each library of 85-95 drugs according to the experiment used, and log IC50 or area under the curve (AUC) metrics were derived for each library compound in each cell line according to a previously derived formula [18].
(§3) Adherent cell lines were seeded 24 hours before drugging. Cells were trypsinised and counted before seeding at the optimal density for the size of well (96 or 384) and duration of assay. 72 hr after drug treatment cells were fixed with 4% paraformaldehyde for 30 minutes. […] Quantification of fluorescent signal was achieved using excitation/emission wavelength of 630/695 […].

H2722 = experiment: rTRAIL response, viability assay, H2722; assay type: cell-based, Human; details: BAP1 HomDel, homozygous
Description: as §1, §2, §3

[1] = system: BAP1 mutant cell lines (H2722, H2461, H28 and H2731); experiment: Annexin V/DAPI cell death assay, BAP1 mutant cell lines; assay type: cell-based, Human; details: TRAIL 0-1000 ng/ml, 24 hours
Description: MPM cell lines were treated with a dose range from 0.5 ng/ml to 100 ng/ml and cell viability was measured using Syto-60 assay. Based on their cell viability, the cell lines were classified into resistant (red), partially sensitive (orange) and sensitive (green). Cell lines were western blotted to probe the expression of BAP1 protein expression. […] Three BAP1 wild-type cell lines (MPP-89, H2869 & H2818) and four BAP1 mutant cell lines (H2722, H2461, H28 and H2731) were treated with TRAIL (0-1000 ng/ml) for 24 hours and cell death quantified using an Annexin V/DAPI cell death assay.
Adherent mesothelioma cell lines were plated in a 96 well plate at approximately 10000 cells per well. Cells were plated and given 1 day to adhere at which time drug was added. After 48 hrs media, including floating cells, was collected from each well. The remaining adherent cells were washed with PBS and mobilised with 0.05% trypsin in EDTA. All cells were collected into tubes containing the previously removed media and pelleted by centrifugation (300 g, 5 minutes). […] Annexin V−/DAPI− cells were judged to be viable, AnnexinV+/DAPI− cells were considered to be undergoing apoptosis (early apoptotic phase), and Annexin V+/DAPI+ cells were considered late apoptotic or necrotic, and recorded as dead.

MDA MB-231 = experiment: rTRAIL response after BAP1 knockdown in MDA MB-231; assay type: cell-based; details: MDA MB-231 breast cancer cell line, BAP1 shRNA
From the text: (§4) FIG. 8A is a graph showing the effect of rTRAIL on the viability of various cancer cell lines. Bladder (RT4) and Breast (HCC1187) cancer cell lines with nonsense mutations in BAP1 show sensitivity to rTRAIL while renal cell cancer cell lines (769P & RCC10RGB) with missense mutation and wild-type renal (BB65RCC) and bladder cancer (SW1710) cell lines are resistant to TRAIL.
The deubiquitinase BAP1 is frequently mutated in pleural mesothelioma (36%), uveal melanoma (47%) and intrahepatic cholangiocarcinomas (25%) as previously noted. To determine whether additional BAP1 mutant tumours occur that may also be amenable to this therapeutic approach, the inventors extended this analysis to a cohort of 5180 tumour samples in 20 cancer types using variant data from The Cancer Genome Atlas (TCGA). Truncating BAP1 mutations were also observed in a diverse range of cancer types, with frequencies of up to 6% (see FIGS. 1b, and c) Carbone, M. et al, Nature Reviews Cancer 13, 153-159 (March 2013). When the inventors extended their analysis to a panel of 1001 cancer cell lines that had previously been submitted for whole exome and copy number analysis, they identified 17 cell lines harbouring truncating mutations in BAP1. These included clear cell kidney cancer, bladder cancer and breast cancer cell lines. […]

769P = experiment: rTRAIL viability, renal cell cancer cell line 769P; assay type: cell-based; details: 769P renal; BAP1 missense mutation
From the text: as §4

H2461 = experiment: rTRAIL response, viability assay, H2461; assay type: cell-based, Human; details: BAP1 Deletion - Frameshift, heterozygous
Description: as §1, §2, §3

[2] = system: mutated BAP1 xenografts (H226 C91A); experiment: Xenograft mouse model, H226 BAP1 and H226 C91A tumours; assay type: in vivo, mice
From the text: FIG. 9A is a protocol of an in vivo experiment. FIG. 9B is a box plot showing the weight of tumours extracted from mice injected with mutant or wild-type BAP1-expressing cells after treatment with rTRAIL. […] FIG. 9C is a graph showing that TRAIL treatment reduces the tumour burden (measured by bioluminescence) of mutated BAP1 xenografts when compared to TRAIL treated wild-type BAP1 xenografts or untreated BAP1 mutated and BAP1 wild-type xenografts.
Groups of 8 week old NOD.CB17-Prkdcscid/NcrCrl (NOD SCID) mice (Charles River) were injected on each flank with 1 million cells of luciferase transduced mesothelioma cell lines (H226 BAP and H226 C91A) in a 1:1 mixture of matrigel and media. When tumours were established, as assessed by bioluminescent imaging (IVIS), at 14 days following injection of tumour cells, treatment was began with either vehicle or isoleucine zipper TRAIL (izTRAIL). Either vehicle or izTRAIL were given intraperitoneally once daily at a dose of 600 mcg for the duration of the experiment. Tumour size was assessed at days 0, 13, 19, 26 and 41 using bioluminescent imaging (IVIS). Mice were culled at 42 days and tumours removed and weighed. Six mice per group were treated. Researchers were not blinded in these experiments.

H2810 = experiment: rTRAIL response, viability assay, H2810; assay type: cell-based, Human; details: BAP1 Wild-type
Description: as §1, §2, §3

H2591 = experiment: rTRAIL response, viability assay, H2591; assay type: cell-based, Human; details: BAP1 Wild-type
Description: as §1, §2, §3

H2804 = experiment: rTRAIL response, viability assay, H2804; assay type: cell-based, Human; details: BAP1 Essential Splice, heterozygous
Description: as §1, §2, §3

NCI-H2052 = experiment: rTRAIL response, viability assay, NCI-H2052; assay type: cell-based, Human; details: BAP1 Wild-type
Description: as §1, §2, §3

B1: rTRAIL: recombinant protein that activates the TRAIL pathway by binding to TRAIL-R1 (DR 4) and TRAIL-R2 (DR 5) (protein, UniProt P50591 1-281, looked up)
Tumor necrosis factor ligand …: MAMMEVQGGPSLGQTCVLIVIFTVLLQSLCVAVTYVYFTNELKQMQDKYSKSGIACFLKEDDSYWDPNDEESMNSPCWQVKWQLRQLVRKMILRTSEETISTVQEKQQNISPLVRERGPQRVAAHITGTRGRSNTLSSPNSKNEKALGRKINSWESSRSGHSFLSNLHLRNGELVIHEKGFYYIYSQTYFRFQEEIKENTKNDKQMVQYIYKYTSYPDPILLMKSARNSCWSKDAEYGLYSIYQGGIFELKENDRIFVSVTNEHLIDMDHEASFFGAFLVG
- rTRAIL response (H2869): Resistant
- rTRAIL response (H2722): Resistant
- fraction of cells stained with Annexin V [1]: increased fraction of cells stained with the apoptotic marker Annexin V
- sensitivity to rTRAIL after knockdown of BAP1 (MDA MB-231): increases sensitivity
- response to TRAIL (viability) (769P): resistant
- rTRAIL response (H2461): Sensitive
- tumour weight at end of experiment ([2]; mutated BAP1 tumours vs wild-type BAP1 tumours with TRAIL or vehicle-treated tumours, intraperitoneally once daily 600 mcg): significantly less
- tumour burden (bioluminescence) ([2]; mutated BAP1 xenografts vs wild-type with TRAIL or vehicle-treated xenografts, tracked over 4 weeks): significantly less
- rTRAIL response (H2810): Resistant
- rTRAIL response (H2591): Resistant
- rTRAIL response (H2804): Sensitive
- rTRAIL response (NCI-H2052): Resistant
